These are literature values, as cited in patent US12514872B2, “Polycationic polymers for use in treating and detecting cancer” (Duke University, priority 2015, dated 2026).

In data set [1] the test system is RNA oligonucleotide coagulation-factor inhibitors (aptamers). Particulars: previous work, WO2008/121354.
A further data set relates to PC tumor cell lines. Particulars: in vitro.
In data set [2] the test system is orthotopic xenograft pancreatic tumors.

On to protamine sulfate, for which the “reversal of anticoagulant activity of aptamers” value in data set [1] is “reverse the anticoagulant activity”.

B1: DNAse I: enzyme used in a cited PC study to treat tumor cells associated with extracellular DNA (protein, UniProt P24855 23-282, looked up)
Deoxyribonuclease-1: LKIAAFNIQTFGETKMSNATLVSYIVQILSRYDIALVQEVRDSHLTAVGKLLDNLNQDAPDTYHYVVSEPLGRNSYKERYLFVYRPDQVSAVDSYYYDDGCEPCGNDTFNREPAIVRFFSRFTEVREFAIVPLHAAPGDAVAEIDALYDVYLDVQEKWGLEDVMLMGDFNAGCSYVRPSQWSSIRLWTSPTFQWLIPDSADTTATPTHCAYDRIVVAGMLLRGAVVPDSALPFNFQAAYGLSDQLAQAISDHYPVEVMLK
For the molecule B1, in the data set on PC tumor cell lines, the “cell invasion, migration and adhesion” value was “reduced cell invasion, migration, and adhesion”. Further, in data set [2], the tumor metastasis result is given as “reduction in tumor metastasis”.
